Experimental data published in PMC10202812, “Resilience to autosomal dominant Alzheimer’s disease in a Reelin-COLBOS heterozygous man” (Nature Medicine, 2023).

Molecular target: T1, neuropilin 1 (NRP1) (UniProt O14786 22-856, biotinylated at a 1:2 molar ratio)
T1 construct: neuropilin 1 (NRP1), recombinant, R&D Systems catalog no; 3870-N1-025; source: bought: R&D Systems (catalog no. 3870-N1-025)
T1 sequence (looked up): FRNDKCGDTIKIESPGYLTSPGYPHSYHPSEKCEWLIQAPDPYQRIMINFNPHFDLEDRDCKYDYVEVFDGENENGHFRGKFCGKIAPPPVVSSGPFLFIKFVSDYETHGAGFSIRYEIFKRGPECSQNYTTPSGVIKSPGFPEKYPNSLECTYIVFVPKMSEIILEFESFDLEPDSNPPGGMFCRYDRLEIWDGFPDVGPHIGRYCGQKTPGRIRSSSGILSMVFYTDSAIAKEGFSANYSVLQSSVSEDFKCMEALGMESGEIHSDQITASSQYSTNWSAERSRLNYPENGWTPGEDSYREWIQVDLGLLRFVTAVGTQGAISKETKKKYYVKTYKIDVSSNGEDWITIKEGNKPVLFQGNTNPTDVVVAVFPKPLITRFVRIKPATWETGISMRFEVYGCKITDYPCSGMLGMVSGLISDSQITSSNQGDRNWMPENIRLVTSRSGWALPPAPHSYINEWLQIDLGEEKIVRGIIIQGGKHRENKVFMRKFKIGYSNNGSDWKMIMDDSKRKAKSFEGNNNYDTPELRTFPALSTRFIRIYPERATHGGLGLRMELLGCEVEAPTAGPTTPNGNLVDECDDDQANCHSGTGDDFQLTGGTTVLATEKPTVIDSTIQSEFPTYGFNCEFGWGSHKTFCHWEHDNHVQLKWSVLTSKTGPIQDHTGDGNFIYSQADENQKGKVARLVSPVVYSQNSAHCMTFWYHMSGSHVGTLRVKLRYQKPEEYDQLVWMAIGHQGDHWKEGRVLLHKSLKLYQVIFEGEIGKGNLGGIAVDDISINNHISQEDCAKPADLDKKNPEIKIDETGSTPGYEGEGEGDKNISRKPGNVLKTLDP
Assay: BLI; biotinylated NRP1 immobilised on streptavidin biosensor tips (Octet); 30 °C, 1,000 rpm; 240 s association, 300 s dissociation; SD Buffer (PBS, 0.05% Tween 20, 0.01% BSA, pH 7.4); 1:1 binding model, global fitting
Conditions: both partners purified

B1: Fc-fusion CTR-RELN H3447R (CTR-RELN-COLBOS) (Fc fusion, human, UniProt P78509 3429-3460, looked up)
chain: STRKQNYMMNFSRQHGLRRFYNRRRRSLRRYP
notes: Reelin (RELN), C-terminal region, amino acids 3,429-3,460 (numbers of the 3,460-residue human protein), with the natural variant H3447R (COLBOS); source: DNA encoding amino acids 3,429-3,460 of RELN-CTR cloned into the pFUSEN-hG2Fc plasmid (InvivoGen)
- fold affinity against WT CTR-RELN: 10 fold
